Sequences and labels used below:
B1: Inhibitor of nuclear factor kappa-B kinase subunit beta (Homo sapiens), O14920 (parent)
chain: MSWSPSLTTQTCGAWEMKERLGTGGFGNVIRWHNQETGEQIAIKQCRQELSPRNRERWCLEIQIMRRLTHPNVVAARDVPEGMQNLAPNDLPLLAMEYCQGGDLRKYLNQFENCCGLREGAILTLLSDIASALRYLHENRIIHRDLKPENIVLQQGEQRLIHKIIDLGYAKELDQGSLCTSFVGTLQYLAPELLEQQKYTVTVDYWSFGTLAFECITGFRPFLPNWQPVQWHSKVRQKSEVDIVVSEDLNGTVKFSSSLPYPNNLNSVLAERLEKWLQLMLMWHPRQRGTDPTYGPNGCFKALDDILNLKLVHILNMVTGTIHTYPVTEDESLQSLKARIQQDTGIPEEDQELLQEAGLALIPDKPATQCISDGKLNEGHTLDMDLVFLFDNSKITYETQISPRPQPESVSCILQEPKRNLAFFQLRKVWGQVWHSIQTLKEDCNRLQQGQRAAMMNLLRNNSCLSKMKNSMASMSQQLKAKLDFFKTSIQIDLEKYSEQTEFGITSDKLLLAWREMEQAVELCGRENEVKLLVERMMALQTDIVDLQRSPMGRKQGGTLDDLEEQARELYRRLREKPRDQRTEGDSQEMVRLLLQAIQSFEKKVRVIYTQLSKTVVCKQKALELLPKVEEVVSLMNEDEKTVVRLQEKRQKELWNLLKIACSKVRGPVSGSPDSMNASRLSQPGQLMSQPSTASNSLPEPAKKSEELVAEAHNLCTLLENAIQDTVREQDQSFTALDWSWLQTEEEEHSCLEQAS
B2: Inhibitor of nuclear factor kappa-B kinase subunit alpha (Homo sapiens), O15111 (parent)
chain: MERPPGLRPGAGGPWEMRERLGTGGFGNVCLYQHRELDLKIAIKSCRLELSTKNRERWCHEIQIMKKLNHANVVKACDVPEELNILIHDVPLLAMEYCSGGDLRKLLNKPENCCGLKESQILSLLSDIGSGIRYLHENKIIHRDLKPENIVLQDVGGKIIHKIIDLGYAKDVDQGSLCTSFVGTLQYLAPELFENKPYTATVDYWSFGTMVFECIAGYRPFLHHLQPFTWHEKIKKKDPKCIFACEEMSGEVRFSSHLPQPNSLCSLVVEPMENWLQLMLNWDPQQRGGPVDLTLKQPRCFVLMDHILNLKIVHILNMTSAKIISFLLPPDESLHSLQSRIERETGINTGSQELLSETGISLDPRKPASQCVLDGVRGCDSYMVYLFDKSKTVYEGPFASRSLSDCVNYIVQDSKIQLPIIQLRKVWAEAVHYVSGLKEDYSRLFQGQRAAMLSLLRYNANLTKMKNTLISASQQLKAKLEFFHKSIQLDLERYSEQMTYGISSEKMLKAWKEMEEKAIHYAEVGVIGYLEDQIMSLHAEIMELQKSPYGRRQGDLMESLEQRAIDLYKQLKHRPSDHSYSDSTEMVKIIVHTVQSQDRVLKELFGHLSKLLGCKQKIIDLLPKVEVALSNIKEADNTVMFMQGKRQKEIWHLLKIACTQSSARSLVGSSLEGAVTPQTSAWLPPTSAEHDHSLSCVVTPQDGETSAQMIEENLNCLGHLSTIIHEANEEQGNSMMNLDWSWLTE

The source of these data is IntAct's records for PubMed 12486103.

Variants of B1 are the subject of one experiment. The settings on record: with ikba_human NFKBIA.
Take K44A: the “effect of a mutation on the interaction” value is “decreasing interaction”.

Another experiment covers variants of B2. The settings on record: with ikba_human NFKBIA.
Consider K44M, for which the “effect of a mutation on the interaction” value is “disrupting interaction”.
